Data from article PMC2275097.
Like-named read-outs stand apart in the source and are kept apart here.

T1: hLon (human Lon protease) (Homo sapiens, UniProt P36776 68-959)
T1 sequence: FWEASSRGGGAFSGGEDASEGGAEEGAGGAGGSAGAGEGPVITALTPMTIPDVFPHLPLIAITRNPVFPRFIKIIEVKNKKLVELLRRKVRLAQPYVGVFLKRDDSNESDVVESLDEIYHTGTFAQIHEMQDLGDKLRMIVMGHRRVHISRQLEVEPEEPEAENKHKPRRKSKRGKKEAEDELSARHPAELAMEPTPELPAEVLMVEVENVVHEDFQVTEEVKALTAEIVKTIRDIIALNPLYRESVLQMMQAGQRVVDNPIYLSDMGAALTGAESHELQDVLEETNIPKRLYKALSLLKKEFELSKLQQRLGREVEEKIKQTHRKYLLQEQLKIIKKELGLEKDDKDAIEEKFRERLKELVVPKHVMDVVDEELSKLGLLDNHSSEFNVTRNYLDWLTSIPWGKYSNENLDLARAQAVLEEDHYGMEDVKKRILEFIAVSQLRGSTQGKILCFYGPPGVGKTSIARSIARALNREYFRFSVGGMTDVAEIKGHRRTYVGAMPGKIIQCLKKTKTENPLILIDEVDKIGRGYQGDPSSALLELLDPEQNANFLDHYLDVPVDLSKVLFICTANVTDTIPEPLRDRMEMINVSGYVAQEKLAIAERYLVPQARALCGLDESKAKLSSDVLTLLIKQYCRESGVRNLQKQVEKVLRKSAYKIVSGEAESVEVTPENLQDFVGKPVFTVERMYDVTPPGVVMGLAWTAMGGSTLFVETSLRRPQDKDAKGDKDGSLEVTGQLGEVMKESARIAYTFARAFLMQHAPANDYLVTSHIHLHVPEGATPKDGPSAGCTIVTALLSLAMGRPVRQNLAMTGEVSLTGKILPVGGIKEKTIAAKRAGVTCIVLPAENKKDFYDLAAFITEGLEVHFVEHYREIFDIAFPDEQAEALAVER


What was measured:
[1] = target: T1, hLon (human Lon protease); experiment: ITC
[2] = target: T1, hLon (human Lon protease); experiment: ITC; remark: listed apart in the source
[3] = target: T1, hLon (human Lon protease); experiment: ITC; remark: listed apart in the source
[4] = target: T1, hLon (human Lon protease); experiment: ITC; remark: listed apart in the source
[5] = target: T1, hLon (human Lon protease); experiment: competition
[6] = target: T1, hLon (human Lon protease); experiment: ITC; remark: listed apart in the source
[7] = target: T1, hLon (human Lon protease); experiment: ITC; remark: listed apart in the source

Row | Binder | Ka [1] | Ka [2] | Ka [3] | Ka [4] | binding result [5] | Ka [6] | Kd [7]
1 | AATAATGTGTTAGTTGGGGGGTGA (structured_DNA) [LSPas] | 2.6 ± 0.72 10^5 M^-1 | 2.45 ± 0.43 10^5 M^-1 | 3.03 ± 0.83 10^5 M^-1 | 2.11 ± 0.11 10^5 M^-1 |  |  | 
2 | GTGTTAGTTGGGGGGTGA (structured_DNA) [LSPas18] |  |  |  |  | binds |  | 
3 | TGGGGGGT (structured_DNA) [TG6T] | 3.48 ± 0.36 10^5 M^-1 | 1.35 ± 0.89 10^5 M^-1 | 1.36 ± 0.22 10^5 M^-1 |  |  | 1.24 ± 0.58 10^5 M^-1 | 7.35 µM
